Measured values taken from patent US20110200533A1 (GUERBET, published 2011).
Ends that are not written are not given here.

Legend:
[1] = molecular target: T1, recombinant human VCAM-1/Fc chimera (human, UniProt P19320 25-698); test: cell-based or functional assay
T1 sequence (looked up): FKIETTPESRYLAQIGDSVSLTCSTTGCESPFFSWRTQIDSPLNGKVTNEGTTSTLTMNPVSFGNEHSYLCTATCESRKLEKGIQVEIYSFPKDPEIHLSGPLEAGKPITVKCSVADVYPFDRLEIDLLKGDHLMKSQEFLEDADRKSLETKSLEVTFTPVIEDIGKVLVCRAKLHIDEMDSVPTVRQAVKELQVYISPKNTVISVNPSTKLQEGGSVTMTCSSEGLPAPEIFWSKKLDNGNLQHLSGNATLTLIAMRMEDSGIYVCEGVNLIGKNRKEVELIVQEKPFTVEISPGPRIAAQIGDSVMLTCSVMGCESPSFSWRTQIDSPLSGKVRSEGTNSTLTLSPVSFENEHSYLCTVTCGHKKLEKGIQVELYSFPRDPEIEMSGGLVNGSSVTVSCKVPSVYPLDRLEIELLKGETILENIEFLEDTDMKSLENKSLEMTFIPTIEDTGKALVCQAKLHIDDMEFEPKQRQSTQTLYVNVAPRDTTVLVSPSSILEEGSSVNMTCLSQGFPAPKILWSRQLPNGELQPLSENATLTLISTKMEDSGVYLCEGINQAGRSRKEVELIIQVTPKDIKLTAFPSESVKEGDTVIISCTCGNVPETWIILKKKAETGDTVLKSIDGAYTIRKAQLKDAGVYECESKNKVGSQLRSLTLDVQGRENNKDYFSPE

[2] = molecular target: T1, recombinant human VCAM-1/Fc chimera; test: ELISA: peptide immobilized on the plate, VCAM-1/Fc at increasing concentrations (3.9×10^-9-4.9×10^-7 M), detected with a mouse anti-human VCAM-1 mAb; apparent Kd

inhibition of cell adhesion (PMA-stimulated Jurkat cells on immobilized VCAM-1), IC50 [1]: 63 µM
Kd [2]: 0.135 µM
Binder: CNNSKSHTC (not fully specified (bridges); also: cyclic, type of ring bond not given here, also called VCAM PEPTIDE) [cyclic peptide CNNSKSHTC (SEQ ID No. 2)]
